Data taken from article PMC3162038.

Substrate: N[C@H]1C[C@H](COP(=O)(O)O)[C@@H](O)[C@H](O)[C@H]1O
Assay: PK/LDH coupled colorimetric assay at A340, Hanes-Woolf plot
Format: biochemical, Streptomyces hygroscopicus
Settings: 300 μM GDP-valienol, 50 mM Tris-HCl pH 7.5, 5 mM MgCl2, apparent

B1: VldE (Streptomyces hygroscopicus subsp. limoneus) (protein)
chain: MTGSEIFLASKRAAITYDTDPATGEPRAWLAPGGTGNVVAEQAGVLNISWIASADSEDDRRASALNPDGVTMELHSGREILVRLIRHDPAVFRNVQNFMTANLMWAANNYGWDRWTQPSFGSDAREGWADFGRFTRDFADAILKSSAQSADPVYLVHDYQLVGVPALLREQRPDAPILLFVHIPWPSADYWRILPKEIRTGILHGMLPATTIGFFADRWCRNFLESVADLLPDARIDREAMTVEWRGHRTRLRTMPLGYSPLTLDGRNPQLPEGIEEWADGHRLVVHSGRTDPIKNAERAVRAFVLAARGGGLEKTRMLVRMNPNRLYVPANADYVHRVETAVAEANAELGSDTVRIDNDNDVNHTIACFRRADLLIFNSTVDGQNLSTFEAPLVNERDADVILSETCGAAEVLGEYCRSVNPFDLVEQAEAISAALAAGPRQRAEAAARRRDAARPWTLEAWVQAQLDGLAADHAARTATAERFDTAPAVSTRADL
- Km: 308.0 ± 34.5 µM
